Assays:
SGNs = assay: SGN complexity, dissociated SGNs (Example D); assay type: cell-based, rat; conditions: differences upon treatment, FIG. 7D
Text: SGNs were immunostained, imaged, and batch analyzed with PerkinElmer Harmony 4.6 software. Changes in the complexities of SGNs upon treatment with various agents were examined. […] All of the images in a single well were stitched together and analyzed. SGN somas are shown in the upper right panel and SGN neurites are shown in the lower left panel. As shown in the lower right panel, each neurite tree is assigned to a single cell for analysis. Depending on the stitching, occasionally neurites will not meet the criteria due to gaps that exceed a user-defined threshold.

[1] = tested on: adult male rats bilaterally exposed to noise; assay: Noise-induced cochlear synaptopathy, ABR thresholds and wave I amplitude (Example G); assay type: in vivo, rat
Protocol: (§1) Animals: Male Sprague-Dawley rats (5-6 months of age) were used for efficacy studies and females (2-3 months) were used for pharmacokinetic studies.
Formulations: Human recombinant BDNF was suspended in the thermoreversible polymer Poloxamer 407 (16%) to reach a range of BDNF concentrations.
(§2) Intratympanic (IT) injection: Formulations were administered under anesthesia as a single IT injection (20 μl) through the tympanic membrane into the middle ear, targeting the round window membrane (RWM).
Noise-induced cochlear synaptopathy: Rats (n=44 per treatment group) received a single acoustic trauma (105 dB SPL, 8-16 kHz, 1 h) under anesthesia. 24 hours later (Day 1) animals received a single bilateral IT injection of the treatment regimens. Auditory function (ABR and ABR wave 1 amplitude) was monitored at day 1 and then every 7 days for 28 days. At termination (Day 28), cochleae were collected and assessed for evidence of cochlear synaptopathy (IHC synaptic puncta counts).
Intratympanic BDNF improves Auditory Brainstem Response (ABR) thresholds and wave I amplitudes in adult rats. The Auditory Brainstem Response (ABR) is an objective test that measures hearing sensitivity and can identify abnormalities in the peripheral auditory system and the auditory pathway up through the brainstem. […]

[2] = tested on: rats after acoustic trauma; assay: Noise-induced cochlear synaptopathy, IHC synaptic puncta counts at various BDNF concentrations (Example K); assay type: in vivo, rat; conditions: at all three BDNF concentrations (0.005%, 0.05%, 0.5% BDNF in P407); Day 28; FIG. 19
Protocol: as §1
Formulations: Human recombinant BDNF was suspended in the thermoreversible polymer Poloxamer 407 (16%) to reach a range of BDNF concentrations (0.005%, 0.05%, and 0.5% by weight).
as §2
Noise-induced cochlear synaptopathy: Rats received a single acoustic trauma (105 dB SPL, 8-16 kHz, 1 h) under anesthesia. 24 hours later (Day 1) animals received a single bilateral IT injection of the treatment regimens. Auditory function (ABR and ABR wave 1 amplitude) was monitored at day 1 and then every 7 days for 28 days, as illustrated in FIG. 16. At termination (Day 28), cochleae were collected and assessed for evidence of cochlear synaptopathy (IHC synaptic puncta counts).
Immunohistochemistry: Dissected cochleae were immunostained with antibodies against presynaptic (CtBP2) and postsynaptic (GluR2) proteins and MyosinVIIa to label hair cells. Cochleae were then frequency mapped and high-magnification images were obtained with a Zeiss LSM-880 confocal microscope and imaged at an interval of 0.35 μm.

B1: brain-derived neurotrophic factor (protein, UniProt P23560 129-247, looked up)
Neurotrophic factor BDNF: HSDPARRGELSVCDSISEWVTAADKKTAVDMSGGTVTVLEKVPVSKGQLKQYFYETKCNPMGYTKEGCRGIDKRHWNSQCRTTQSYVRALTMDSKKRIGWRFIRIDTSCVCTLTIKRGR
modifications: Neurotrophic factor BDNF in 16% poloxamer 407 gel
notes: Human recombinant BDNF
- total neurite length, total number of extremities, segments, and nodes per cell (SGNs): not statistically significant
- ABR threshold shift ([1]; 0.05 mg/ml BDNF in P407, intratympanic injection 24 hours after noise exposure, ABR at days 1, 7, 14, and 28, vs P407 vehicle alone, FIG. 12A): more rapid recovery of initial threshold shifts and overall reduced levels of hearing loss
- ABR wave I amplitudes ([1]; BDNF in P407 vs vehicle treatment following noise exposure, across many frequencies, FIG. 12C): Significant improvements
- synaptic puncta (co-expression of CtBp2 and GluR2) per inner hair cell [2]: increased

— US20230122991A1, “GROWTH FACTOR FORMULATION FOR CONDITION ASSOCIATED WITH OTIC EVENT” (OTONOMY, INC., priority 2020, published 2023)
